Measurements: US20240262894A1 (INSTITUTE OF MICROBIOLOGY CHINESE ACADEMY OF SCIENCES, published 2024)

Assays:
[1] = molecular target: F protein of RSV A-type A2 strain (on virus) (respiratory syncytial virus A-type A2 …, UniProt P03420 26-574); assay: cell-based or functional assay
[2] = molecular target: F protein of RSV A-type Long strain (on virus) (respiratory syncytial virus A-type Long …, UniProt P12568 26-574); assay: cell-based or functional assay
[3] = molecular target: T1, F protein of RSV A-type A2 strain (on virus) (respiratory syncytial virus A-type A2 …, UniProt P03420 26-574); assay: cell-based or functional assay; remark: listed apart in the source
[4] = molecular target: F protein of RSV A-type Long strain (on virus) (respiratory syncytial virus A-type Long …, UniProt P12568 26-574); assay: cell-based or functional assay; remark: listed apart in the source
[5] = molecular target: T2, F protein of RSV B-type clinical isolates (on virus) (respiratory syncytial virus B-type …); assay: cell-based or functional assay
[6] = molecular target: T1, F protein of RSV A-type A2 strain (on …); assay: cell-based or functional assay; remark: listed apart in the source
[7] = molecular target: T2, F protein of RSV B-type clinical …; assay: cell-based or functional assay; remark: listed apart in the source
[8] = molecular target: T3, pre-fusion F protein DS-Cav1 of RSV A2 strain (respiratory syncytial virus A2 strain); assay: SPR (Biacore), F protein immobilised on CM5 chip, Fab as analyte
T3 construct: Purified from 293T cells; also called RSV-F (DS-Cav1); RSV pre-fusion F protein

[9] = molecular target: T4, post-fusion F protein (FΔFP) of RSV A2 strain (respiratory syncytial virus A2 strain, UniProt P03420 26-513); assay: as above
T4 construct: also called RSV-FΔFP; RSV post-fusion F protein

Row | Binder | IC50 (ng/mL), neutralization of RSV A-type A2 strain on Hep2 cells, flow cytometry [3] | neutralization activity against RSV B-type clinical isolates relative to palivizumab [5] | IC50 (ng/mL), neutralization of RSV B-type clinical isolates on Hep2 cells, flow cytometry [7] | Kd [8] | Kd [9] | further results
1 | Palivizumab (antibody, V domains shown) VH: QVTLRESGPALVKPTQTLTLTCTFSGFSLSTSGMSVGWIRQPPGKALEWLADIWWDDKKDYNPSLKSRLTISKDTSKNQVVLKVTNMDPADTATYYCARSMITNWYFDVWGAGTTVTVSS VL: DIQMTQSPSTLSASVGDRVTITCKCQLSVGYMHWYQQKPGKAPKLLIYDTSKLASGVPSRFSGSGSGTEFTLTISSLQPDDFATYYCFQGSGYPFTFGGGTKLEIK |  |  |  |  |  | IC50 (ng/mL), neutralization of RSV A-type A2 strain on Hep2 cells, flow cytometry [1]: 751 ng/mL; IC50 (ng/mL), neutralization of RSV A-type Long strain on Hep2 cells, flow cytometry [2]: 897 ng/mL
2 | RV11 antibody (human IgG1) (antibody, V domains shown) VH: QVQLVQSGGGVVQPGRSLRLSCAASGFSFTNYGMHWVRQAPGKGLEWVAVISYDDGSDKYYADSVKGRFTISRDNSKNTLYLQMNSLRAEDTAVYYCVRDPTGDYGDFPEQDGYYYYYGMDVWGQGTTVTVSS VL: QAVLTQPPSASGTPGQRVTISCSGSSLNIGSNYVYWYQQLPGTAPKFLIYKNNQRPSGVPDRFSGSKSGTSASLAISGLRSEDEADYYCAAWDDSLSGVVFGGGTKLTVLG | 42.3 ng/mL | ~45 times | 31.4 ng/mL |  |  | neutralization activity against RSV Long relative to palivizumab [4]: ~16 times; neutralization activity against RSV A2 relative to palivizumab [6]: ~18 times
3 | RV8 antibody (human IgG1) (antibody, V domains shown) VH: QVQLVQSGGGVVQPGRSLRLSCAASGFTFSSYAMHWVRQAPGKGLEWMAVISYDGSNTYYADSVKGRFTISRDNSKNTLYLQMNSLRAEDTAMFYCARDYCSRGTCYHDYWGQGTLVTVSS VL: DIVLTQSPSSLSASVGDRVTITCRASQDIRNDLSWYQQKPGKAPKLLIYAASSLQSGVPSRFSGSGSGTDFTLTISSLQPEDFATYSCLQDYNYPQTFGQGTKVEIKR | 540 ng/mL | 7.7 times | 183 ng/mL |  |  | 
4 | RV8 Fab (Fab, V domains shown, Fab made by enzyme digestion of the human IgG1/kappa antibody; also called Fab of RV8 antibody; not shown: limits not st) VH: QVQLVQSGGGVVQPGRSLRLSCAASGFTFSSYAMHWVRQAPGKGLEWMAVISYDGSNTYYADSVKGRFTISRDNSKNTLYLQMNSLRAEDTAMFYCARDYCSRGTCYHDYWGQGTLVTVSS VL: DIVLTQSPSSLSASVGDRVTITCRASQDIRNDLSWYQQKPGKAPKLLIYAASSLQSGVPSRFSGSGSGTDFTLTISSLQPEDFATYSCLQDYNYPQTFGQGTKVEIKR |  |  |  | 25.6 nM | 17.5 nM | 
5 | RV10 Fab (Fab, V domains shown, Fab made by enzyme digestion of the human IgG1/lambda antibody; also called Fab of RV10 antibody; not shown: limits not st) VH: QVQLVQSGAEVKKPGASVKVSCKASGYTFTTYDFHWVRQAPGQGLEWIGWLNPDNGNTKHSQKFQGRVTFTRDTSASTAFMELSSLRSEDTAVYYCTRAPWWWYFDYWGQGTLVTVSS VL: NFMLTQPHSVSESPGKTVTISCTRSSGSIASNYVQWCQQRPGSSPTTVIYEDNQRPSGVPDRFSGSIDSSSNSASLTISGLRTEDEADYYCQSYDTSNAVFGGGTKLTVLG |  |  |  | 10.1 nM | 7.1 nM | 
6 | RV7 Fab (Fab, V domains shown, Fab made by enzyme digestion (immobilised enzyme beads, Thermo 20341) of the human IgG1/kappa antibody; also called Fab of RV7 antibody; not shown: limits not st) VH: QVQLQESGPGLVKPSETLSLTCTVSGGSISSYYLSWIRQPPGKGLEWIGYIYHTGSTNYNPSLKSRVTISVHSSKNQFSLKLTSVTAADTAVYYCARHMRIVTTIDYWGQGTLVTVSS VL: DIVMTQSPSSLSASVGDRVTLTCRASQGISSYLAWYQQKPGKVPKLLIYAASTLQSGVPSRFSGSGSGTDFTLTISSLQPEDVATYYCQKYNSAPWTFGQGTKVEIKR |  |  |  |  |  | binding result [8]: no binding; binding result [9]: no binding
